Assay: yeast display, Sf9 membrane polyspecificity reagent, FACS + sequencing; frameworks hold sequencing errors
Procedure, shortened: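 Nanobodies came from a synthetic yeast display library in Saccharomyces cerevisiae BJ5465, induced with galactose for 36–48 hours and stained for 1 hour at 4 °C with 10% biotinylated, detergent-solubilized Sf9 membrane reagent. Cells were enriched on streptavidin microbeads and then FACS-sorted, with low and high (top ~1%) gates set on anti-HA fluorescence for expression and streptavidin fluorescence for reagent binding. Each polyreactivity label reflects the gate a clone came from. Genes were amplified by colony PCR, sequenced by MiSeq 2 × 250 and filtered by CDR length.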

Sequence | polyreactivity (PSR sort gate)
QVQRVESGGGLVQAGGRLRLTCAASGSTFYVNAMVWYRQAPGKERELVAGISFSDGSTYYADSVKGRFTISRDNAKNTVYLQMNSLKPEDTAVYYCATVGAFDIYYGYGYWGQGTQVTVSS | low polyreactivity
QVQRVESGGGLVQAGGSLLLSCAASGRIFVTYAKGWYRQAPGKERDLVASITGGGSRYYADSVKGRVTISRDKAKTTVYVQMTRLKPEDPAVNYCAAKSRSWYFGYGYWGQGTQVTVSS | high polyreactivity
QVQRVESGGGLVQAGGSLLLSCAASGSILYSYPMGWYRQAPGKERELVAAITGDGASTNYADSVKGRFTISRDNAKNTDYLQMNSLKPEDTAVYYCNAGRESDDVYEGSKRIGQFDYWGQGTLVTVSS | low polyreactivity
QVQRVESGGGLVQAGGSLRFSCAASGSTFSYYAMGWYSQAPGKERELVAVISRGGSTNYADSVKGRFTISRDNAKNTVYLQMNSLKPEDTAVYYCAAYVLPWRGRGQTEYGYSGQGTQVTVSS | low polyreactivity
QVQRVESGGGLVQAGGSLRLSCAASGGIFDRYAMGWYRPAPGKERELVAVISGSVNTYADSVKGRFTISRDNAKNTVYLQMNSLKPEDTAVYYCATQFEGPSGFNYWGQGTQVTVSS | low polyreactivity
QVQRVESGGGLVQAGGSLRLSCAASGITFGEYAMGWYSPAPGNERELVAGINWSGDGTYYADSVKGRFTISRDNEKNTVYLQMNSLKPEDTAVYYCAVDPGGGNYIYYYNEYYYWGQGTQVTLSS | low polyreactivity
QVQRVESGGGLVQAGGSLRLSCAASGITFGPYAMGWYRQAPGKERELVAAITGSGGITYYADSVKGRFTISRDNAKNTVYLQMNSLKPEDTAVYYCAAEYPYVYGTYSDSYTEYDYWGQGTQLTVSS | low polyreactivity
QVQRVESGGGLVQAGGSLRLSCAASGITFSRYAMGWYRPAPGKERELVAAISRSGTRTYYADSVKGRFTISRDNAKNTVYLQMNSLKPEDSAVYYCAAESFASSFDYWGQGTQVTVSS | high polyreactivity
QVQRVESGGGLVQAGGSLRLSCAASGITIYHYAMGCYRQAPGKERELVAAISRSGGSTSYADSVKGRFTISRDNAKNTVYLQMNSLKPEDTAVYYFAARLVRESDPLGYWGQGTQVTVSS | high polyreactivity
QVQRVESGGGLVQAGGSLRLSCAASGRIFIANAMGWYRQAPGKERELVAAISFSGGSTYYADSVKGRFTISRDHAKTTVYLQMNSLNPEDTAVYYCNALYTSYYRPSGMGYWGQGTQVTVSS | high polyreactivity
QVQRVESGGGLVQAGGSLRLSCAASGRIFPTNAMGWYRQAPGKERELVAAIPVSGGSTYYADSVKGRFTISRDNAKNTVYLQMNSLKPEDTAVYYCAADSSTYRFDYWGQGTQVTVSS | low polyreactivity
QVQRVESGGGLVQAGGSLRLSCAASGRNSQFYDMGWYRQAPGKERELVATISGGASTNYADSVKGRFTISRDNAKNTVYLQMNSLKPEDTAVYYCARAGRSWDTLYKYYLEHDYWGQGTQVTVSS | low polyreactivity
QVQRVESGGGLVQAGGSLRLSCAASGRTFFGYAMGWYRQAPGKERELVAAITSGGSTNYADSVKGRFTISRDNAKNTVYLQMNSLKPEDTAVYYCAASEDGSVSYESTYPEYDYWGQGTQVTVSS | low polyreactivity
QVQRVESGGGLVQAGGSLRLSCAASGRTFNHYAMGWYRAAPGKERELVAAISRSGGTTYYADSVKGRFTISRENAKNTVYLQMNSLKPEDTAVYYCAARWWYRYNYDFWGQGTQVTVSS | high polyreactivity
QVQRVESGGGLVQAGGSLRLSCAASGRTFYPNAMGWSRQAPGKERELVADITYSGASTYYADSVKGRFTISRDNAKNTVYLQMNSMKPEDTAVYYCAKVYGQMVSGGYVTRYDFWGQGTQVTVSS | low polyreactivity
QVQRVESGGGLVQAGGSLRLSCAASGRTLARNAMGWYRQAPGKERELVASINGRTTRTYYADSVKGRFTISRDNAKNTVYLQMNSLKPEDTAVYYCAVKDRYSFRYDYWGQGTQVTVSS | high polyreactivity
QVQRVESGGGLVQAGGSLRLSCAASGSIFEPYAMGCYRQAPGKESELVATAITYSGGSTYYADSVKGRFTISRDNAKNTVYLQMNSLKPEDTAVYYCAADDLGDGVYKLDYWGLGTQVTVSS | low polyreactivity
QVQRVESGGGLVQAGGSLRLSCAASGSIFGYYAMGWSRQAPVKERELVAAITRSCGSTYYADSVKGRFTISRDNAKTTVYLQMNSLKPEDTAVYYCNAVRYAVRLPAFPGYDYLGQGTQVTVSS | high polyreactivity
QVQRVESGGGLVQAGGSLRLSCAASGSTFGIYDMGWYRQSPGKEMELVARITYSGGSRYYADSVKGRFTISRDNAKNTVYLQMNSLKPEDTAVYYCAARSWPHYFRYDYWGQGTQVTVSS | high polyreactivity
QVQRVESGGGLVQAGGSLRLSCAASGSTFTWNVMGWYRQAPGKERELVASITSGDSTYADSVKGRFTISRDNAKNTVYLQMNSLKPEDTAVYYCNVGYDQEKYGYWGQGTQVTVSS | low polyreactivity
QVQRVESGGGLVQAGGSLRLSCAASGSTFYRYAMVWYRQAPGKERELVATISGGGRTNYADSVKGRFTISRDNAKNTVYLQMNSLKPEDTAVYYCAVDSSSPYDYWGQGTQVTVSS | high polyreactivity
QVQRVESGGGLVQAGGSLRLSCAASGSTLRKYVMGWYRQAPGKERELVAAISSSGGRTYYADSVKGRFTISRDNAKYTVYLQMNSLKPEDTAVYYCAATRYIPGFYYWGQGTQVTVSS | high polyreactivity

Sequence | polyreactivity (PSR sort gate)
QVQRVESGGGLVQAGGSLRLSCAASGYTFLRYAKGSYRQAPGKERELVAAISRRGGRTYYADSVKGRFTISRDNAKNTVYLQMNSLKPEDTAVYYCAAVNSTQTIGLMDYWGQGTQVTVSS | high polyreactivity
QVQRVESGGGLVQAGGSLRLSCAATGLIFSPYAMGWYRQAPGKEREFVAGITWRGGNTYYADSVKGRFTISRDNAKNTVYLQMNSLNPEDTAVYYCAAYERKFYTVSRWYKLDYWGQGTQVTVSS | high polyreactivity
QVQRVESGGGLVQAGGSLRLSCADSGTYGSYAMGWYRQAPGTEREFVAAISASGGSTYYADSVKGRFTISRDNAKNTVYLQMNSLKPEDTAVYYCNKSPRRNRQYDYWGQGSQVTVSS | high polyreactivity
QVQRVESGGGLVQAGGSLRLSCSASGFIFQLSAMGWYRQAPGTERELVAAITWRGGSTYYADSVKGRFTISRDNAKNTVYLQMYSLKPEDTAVYYCAASASWRGQRVPYGYWGQGTQVTVSS | high polyreactivity
QVQRVESGGGLVQAGGSLRLSFAASGSTDGRYARGWYSQAPVQDTELVAAITRNGGRTYYADSVKGCFTISRDNAKNTVYLQMNSLKPEHTADEYCAASGRSQYGDYDDWGQGSQVTVSS | high polyreactivity
QVQRVESGGGLVQAGGSVRLSCPASGSIFWSYAMGWYRQAPGKERELVAVINWSGGSTYYADSVKGRFTISRDNAKNTVYLQMNSLNPEDTAVYYCNKDLGPTKRPFTFDYSGQGTQVTVSS | low polyreactivity
QVQRVESGGRLVQAGGSLRLSCAASGRTFWAYAMGWYRQAPGKERELVAAITTSGGSTNYADSVKGRFTISRDNAKNTVYLQMNSLKPEDTAVDYCNADPTYHVVNGVGYWGQGTQVTVSS | low polyreactivity
QVQRVESRGGLVQAGGSLRLTCAASGRTFWRYVMGWYRQAPGKERELVATISSGGSTNYAYSVKGRFTISRDNAKNTVYLQMNSLKPEDTAVYYSAAYIYDGVWVYPYYPYDYWGQGTQVTVSS | low polyreactivity
QVQSEESGGGLVQAGGSLRLSCAASGLIFDGYSMGWNRQAPGKERELVAAITRSGASTSYADSVKGRFTISRDNAKNTVYLQMNSLKPDDTAVYYCAAKVHTFYYHYYSWGQGTQVTVSS | high polyreactivity
QVQVVESGGGLVKAGGSLRLSCAASGGTFLINAMGWYRQAPGKERELVATITSGGTTYYADSVKGRFTISRDNAKNTVYLQMNSLKPEDTAVYYCATRGKGRYGYDSWGQGTQVTVSS | low polyreactivity
QVQVVESGGGLVKAGGSLRLSCAASGIIFVYYAMGWSRQAPGKERELVAAITSDGGRTYYADSVKGRFTISRDNAKNTVYLQMNSLKPEDTAVYYWAARTLYRGIKGYNYWGQGTQVTVSS | high polyreactivity
QVQVVESGGGLVQAGGSLGLSCAASGRTFGSNAMGWYRQAPGKERELVAAISSTVSTNYADSVKGRFTISSDNANNTVYLQMNSLKPEDTAVYFCNVTRHYSYVSEYDYWGQGTQVTVSS | low polyreactivity
QVQVVESGGGLVQAGGSLRLRCAASGSIIKYYAMGWYREAPGKERELVADISWRGGRTYADSVKGRFTISRDNAKNTVYLQMNCLIPEDTAVYYCAKPSKARGGYDYWGQGTQVTVSS | high polyreactivity
QVQVVESGGGLVQAGGSLRLSCAASGFTFDYYNMGWYRQAPGKERELVAAITSGASTNYADSVKGRFTISRDNAKNTVYLQMNSLKPEDTAVYYCAAVLAGGVYWVVHYDYWGQGTQVSVSS | low polyreactivity
QVQVVESGGGLVQAGGSLRLSCAASGFTFSFNAMGSYRQAPWKERELVAAIDRGVSTYYADSVKGRFTISRDNAKNTVYLQMKSLKPEDTAVSYCAVEYWEPYDMDYWGQGTQVTVSS | high polyreactivity
QVQVVESGGGLVQAGGSLRLSCAASGGTFSPYDMGWYRQAPGKERELVASITRSGGSTYYADSVKGRFTISRGNSKNTVYLQMNSLKPEDTAVYYCAAQGYWTYWPYLLRLYDYWGQGTQVTVSS | low polyreactivity
QVQVVESGGGLVQAGGSLRLSCAASGITFWGYAMGWYRQAPGKERELVAAITRTGSTYYADSVKGRFTISRDNAKNTVYLQMNSLKPEDTALYYCAAYTPNASTYRRKSSKKVYYWGQGTQVTVSS | high polyreactivity
QVQVVESGGGLVQAGGSLRLSCAASGRTFFRNAMGWYRQARGKERELVAAISKRGGSTRYADSVKGRFTISRDQAQNPDYLQMNSLKPEDTAVYYCAAASRLEYSHATLYYWGQGTQVTVSS | high polyreactivity
QVQVVESGGGLVQAGGSLRLSCAASGRTFGGYDMGWYRQAPGKERELVAAISWSGGNTYYADSVKGRFTISRDNAKNTVYLQMNSLKPEDTAVYYCAAGHYVYWYRYQLGRYNYWGQGTQVTVSS | high polyreactivity
QVQVVESGGGLVQAGGSLRLSCAASGRTFYGNAMGWYRQAPGKERELVASITSRGDNTYYADSVKGRFTISRDNAKNTVYFQMNSLKPEDTAVYYCAAGTVYYTYLWMGYWGQGTQVTVSS | low polyreactivity
QVQVVESGGGLVQAGGSLRLSCAASGRTSGNYAMGWYRQAPGKERELVAAIRYSGSSTFYADSVKGRFTISRDNAKHTVYLQMNSLKPEDTAVYYCARDIRRKGFRYDYWGQGTQVTVSS | high polyreactivity

— the nanobody polyreactivity screen of Harvey et al. (2022)
